Experiment [1] addresses Papain from papaya latex (Sigma) (papaya) (UniProt P00784).
Experiment [2] has the same target. The source holds these as a separate data set.

Protease activity (OD), Protease Assay Kit and protease activity (% of papain alone), Protease Assay Kit data for 2 substances are collected here from patent US20230159659A1.

The substance “Recombinant Human Cystatin SN Protein (recombinant CST1, R&D Systems)” came in with a protease activity (OD), Protease Assay Kit in experiment [1] of 0.0005 OD.

With “Recombinant human Cystatin SA protein (recombinant CST2, Abcam)”, in experiment [2], the protease activity (% of papain alone), Protease Assay Kit turned out to be 64.3%.
